Key:
Test in all cases: IEDB peptide-MHC binding, purified MHC/competitive/fluorescence; filed as Kd, often an IC50 or EC50 that approximates it; ≥ and ≤ were set here for values at or beyond the usual limits of such assays
Details in all cases: source organism: Entamoeba histolytica HM-1:IMSS
HLA-A*23:01 = target: HLA-A*23:01
HLA-A*24:03 = target: HLA-A*24:03
HLA-A*29:02 = target: HLA-A*29:02
HLA-A*30:02 = target: HLA-A*30:02
HLA-A*68:02 = target: HLA-A*68:02
HLA-B*15:01 = target: HLA-B*15:01
HLA-B*18:01 = target: HLA-B*18:01
HLA-B*40:01 = target: HLA-B*40:01

EVRKAIEFV
Kd (HLA-A*23:01): 1.3 µM
Kd (HLA-A*24:03): ≥ 20 µM
Kd (HLA-A*29:02): ≥ 20 µM
Kd (HLA-A*30:02): ≥ 5 µM
Kd (HLA-A*68:02): ≤ 0.001 µM
Kd (HLA-B*15:01): ≥ 20 µM
Kd (HLA-B*18:01): ≥ 20 µM
Kd (HLA-B*40:01): ≥ 5 µM
